Results reported in the DeepSol protein solubility set.

Experiment: soluble on expression in E. coli; label from the status in PepcDB or PDB records

Sequence | soluble on expression in E. coli
MSNQLFDAYFTAPAMREIFSDRGRLQGMLDFEAALARAEASAGLVPHSAVAAIEAACQAERYDTGALANAIATAGNSAIPLVKALGKVIATGVPEAERYVHLGATSQDAMDTGLVLQLRDALDLIEADLGKLADTLSQQALKHADTPLVGRTWLQHATPVTLGMKLAGVLGALTRHRQRLQELRPRLLVLQFGGASGSLAALGSKAMPVAEALAEQLKLTLPEQPWHTQRDRLVEFASVLGLVAGSLGKFGRDISLLMQTEAGEVFEPSAPGKGGSSTMPHKRNPVGAAVLIGAATRVPGLLSTLFAAMPQEHERSLGLWHAEWETLPDICCLVSGALRQAQVIAEGMEVDAARMRRNLDLTQGLVLAEAVSIVLAQRLGRDRAHHLLEQCCQRAVAEQRHLRAVLGDEPQVSAELSGEELDRLLDPAHYLGQARVWVARAVSEHQRFTA | soluble
MSNQSKLNSAAYDQLNKDADRILHLIKVQMDNLTLPSCPLYEEVLDTQMFGLQKEVDFAVQLGLVDKEDGKQLMLRLEKELSKLHEAFTNV | not soluble
MSNRFKFFAAIREYNPEGEVFLRIIGTGSNNNLTYRIMESRLNEVGISLGSFLSAVVPMGEPIRDFVPEERNFKVIIDGIVAMVENIEGNLEKNEEGVLVFSTEDFGLVRALDQKLSPGQYQITVRATKFSERKIFKNMNYCAEAQKIAPLVTATESESIFKRVASFFQKSPEENSLESTSKQANEEKDSSVQDLSMAELIEILPNLDQKSINQPTPAPRSMVGSVGITRTMNALVCDVIHQEKECIHFLWICEIQQISMFASKSHYLSPGKFFEGLFEKKETNWECIRFVGEKKELLKGITDGDKFKVTLTNEQGFPVFTVENLYAKLIAFEGKFVFHNKTFGNAIIGCYRPPGDYKITIKLLPIPFTTPTGKFICFEAIHFESADVLSSSNTNTTENKKKVTEKVKERGIRRPQDPKSKGIQRAVVIRVIEKGNSTDYIVWNLDSKMECIFRSAKHELERGHFFSGKFVKKSDGSLMCTNYVKQIKGFVEGGLDEHENIYFTVPIQNFQAARGNRKYNCAFSEYFGEVLEGKAENTKLSSNCNGKTVNIEWKKIGASGSDEYVWIVSKIF | not soluble
MSNTVTLRADGRLFTGWTSVSVTRSIESVAGYFELGVNVPPGTDLSGLAPGKKFTLEIGGQIVCTGYIDSRRRQMTADSMKITVAGRDKTADLIDCAAVYSGGQWKNRTLEQIARDLCAPYGVTVRWELSDKESSAAFPGFTLDHSETVYEALVRASRARGVLMTSNAAGELVFSRAASTATDELVLGENLLTLDFEEDFRDRFSEYTVKGYARANGAEGDDIDAKSIVSRKGTATDSDVTRYRPMIIIADSKITAKDAQARALREQRRRLAKSITFEAEIDGWTRKDGQLWMPNLLVTIDASKYAIKTTELLVSKVTLILNDQDGLKTRVSLAPREGFLVPVESDRKNRKGGDSNGGIDALVEDYYRRHPEKTPPWKE | soluble
MSNVTPKLVWPEDDYVDESLLEDHQGPARLEYDALVMLANLPPLTEEIMSRCPALPVKTRSTPEYTLVLDLDETLVHCSLTPLDNATMVFPVVFQNITYQVYVRLRPHLRTFLSRMAKTFEIIIFTASKKVYANKLCDILDPRKNHIRHRLFREHCVCVFGNYVKDLTILGRDPSKTMILDNAVQSFAYQLDNGIPIESWFHDRNDTELLKLCSFLEAIPTLGRDVREILRHKYRLRDHIPFYSIIHQQEGPGRLPLLEVAPPPVTEPNDEQLITQVVQKHPQLVQG | soluble
MSPESSNQTTSLSSFLLKCAFPDGTVPINIAPQSLSLSSSPGSYDGDQFSPLMKQHKSRKYDSCTISDDLHDEMKRLKKKEEAFKTALCGFQRRGQKCIYGEQCKFAHSVHELRFTQAKKTHRNYKTVLCDKFSTTGYCKYGARCQFIHRALGSTSTTESAEMADFKLNVESDLSRAFALDYTSFLPNWHCSALLH | not soluble
MSQAFAQPLSGYQIGDEIKNFSMLNVTNQTVLSLTDYNDQKVVVIIFTNNNCAYAKLYEQRIANLAKQYNTSGVAFLLVNPSVSNSDKFETIEAMRKKIQNDKSLYPYLADTTQSLAISFGVQRLPDAFVLKKMETSFRLVYKGSIDDNPQSAEDVSNRFLSDAISAMVLNRSIKVADTRAVGCLLKPY | not soluble
MSQARPATVLGAMEMGRRMDVTSSSASVRAFLQRGHTEIDTAFVYANGQSETILGDLGLGLGRSGCKVKIATKAAPMFGKTLKPADVRFQLETSLKRLQCPRVDLFYLHFPDHGTPIEETLQACHQLHQEGKFVELGLSNYVSWEVAEICTLCKKNGWIMPTVYQGMYNAITRQVETELFPCLRHFGLRFYAFNPLAGGLLTGRYKYQDKDGKNPESRFFGNPFSQLYMDRDWKEEHFNGIALVEKALKTTYGPTAPSMISAAVRWMYHHSQLKGTQGDAVILGMSSLEQLEQNLALVEEGPLEPAVVDAFDQAWNLVAHECPNYFR | soluble
MSQNVYQFIDLQRVDPPKKPLKIRKIEFVEIYEPFSETQAKAQADRCLSCGNPYCEWKCPVHNYIPNWLKLANEGRIMEAADLAHQTNSLPEVCGRVCPQDRLCEGSCTLNDEFGAVTIGNIERYISDKAIAMGWKPDMSHVHPTGKRVAVIGAGPAGLACADVLARNGVQAVVFDRHPEIGGLLTFGIPAFKLEKEVMIKRRKIFSEMGIEFQLNTEVGKDITMEALLKDYDAVFLGVGTYQSMRGGLENEEANGVYDALPFLIANTKQLMGYEATAHEPYINMQGKRVVVLGGGDTAMDCVRSSIRQGATDVVCAYRRDEVNMPGSKREVKNAREEGVEFKFNLQPLSIEVNSNGKVCGVRMVRTQLGAPDAQGRRMAEQIPGSEHVLPADAVVMAFGFRPHSMEWLAAHDVKLDKQGRVIAPESTDNAFQTSNPKIFAGGDIVRGSDLVVTAIAEGRKAADGIMNYLEV | not soluble
MSQQKIGVLLVNLGTPEHPTAPAIRKFLKPFLADSRVIDYPKFLWKPILYSFILPFRPRKVKPLYQHVWTNEGSPLYANAIGQEKALQAHFDQSEHGVLVRATMAYSKPSISDVVDEFLKEKVAKMIVLPLFPQYSSTTTAAIFDAFAQSLKKKKDIPPFDFIHHYYERPSYIQALAQTIHLQENEHLLFSFHGIPQRYVIEGDYYTEHCQQTAQLIAVAAGLSEEQWQVSYQSRFGPEEWTRPYTDETLIQLPKQGKKKLAVICPGFAADCLETLEEIDITNRKHFMAAGGQAYRYIPALNASPAHIQLLAELISERL | not soluble
MSQTIGRIEEISFYSASLQDDVTLLVYLPVNYTPLHKHTVVIAQDGRDYFQLGKAHRVIERLRETEEIDRTIIVGIPYKNVHDRKEKYFPNEVKNAAYIRFLAHELAPYIDENYPTYQMGKGRVLIGDSLGGTVSFMTALMYPHTFGKVVMQSPFVDETVMNLAKEFKDPQALELYHVIGTEETAVKRTDGQVSDFVGPNRELNTLLTDRNFITHYEEFEGNHTWKYWQTDLPKAFSHILSMK | not soluble
MSQTKIEWADKVWNPVSGCTKISEGCQNCYAERMSKRLAGRCGYPAEEPFKVTPHPEKLGEPLKWRKPLRIFVNSMSDLFHADVPDKFIINVLSMIAEASHHTFLILTKRPERMRELLNHDTIANDVWLQTSRGVNAERSPWPLPNLWLGVSAENQAAADERIPILLQTPAAVRFVSVEPMLSEVNLSRYLKRPICKHWGRNGDPNIYGRYFWGKQALVGAGWVGIDWVICGGETGPGARPMHPVWVRDLRDQCRVAGTPFFFKSFGEYVRVGECMNEEDDEEFYSKSSAAGTNVQRLNLQGGMGYHGPKSIYMQRIGKKRAGRELDGRTWEEFPLEHHHHHH | not soluble
MSQWTTVCKLDDILPGTGVCALVEQQQIAVFRPRNDEQVYAISNIDPFAQASVLSRGIVAEHQDDLWVASPLKKQHFRLYDGFCLEDGAYSVAAYDTQVTNGNVQISIADSDVAVDNSQPLPLEHHHHHH | soluble
MSRAASLRAELTSLANAFEEERISSAERLDADLVRQAVEQAKPENLEQWKQVVHDATAKLQQFWEDSEQALIRETYALATSYLRESDDEVHRLQMTKKALEEQLETERRRSTRIEEQLAALQSRLLDSAAPAATTPADDARTQQEVLRSELQGFMQELVRNQRESLRVLQEELQRVREEASVREENLLRQIAHLKTELAVARTDNEVSSRQLRQLETSAGREEVQDELGPGTIWPPHLTPRRGHRRFQRHNRLEDAPAPPEF | not soluble
MSRTIWLVRHGQRVDNVDKKWKANNDAKWDDPELTLRGKQQAHEVGKHFANMNIEAIVVSPFTRCIETAAQIVAMMENKAKICVEPGLMEPLYLCKNPPTIPSMDKIKEYSTQVDESYKPVFEKLPISEISLLFSEISLLFPMVLHWQTSTLS | not soluble
